Experimental data from the DeepSol protein solubility set.

Experiment: soluble on expression in E. coli; label from the status in PepcDB or PDB records

Sequence	soluble on expression in E. coli
MERRLGVRAWVKENRGSFQPPVCNKLMHQEQLKVMFVGGPNTRKDYHIEEGEEVFYQLEGDMVLRVLEQGKHRDVVIRQGEIFLLPARVPHSPQRFANTVGLVVERRRLETELDGLRYYVGDTMDVLFEKWFYCKDLGTQLAPIIQEFFSSEQYRTGKPIPDQLLKEPPFPLSTRSIMEPMSLDAWLDSHHRELQAGTPLSLFGDTYETQVIAYGQGSSEGLRQNVDVWLWQLEGSSVVTMGGRRLSLAPDDSLLVLAGTSYAWERTQGSVALSVTQDPACKKPLGLEHHHHHH	not soluble
MAYIQLEPLNEGFLSRISGLLLCRWTCRHCCQKCYESSCCQSSEDEVEILGPFPAQTPPWLMASRSSDKDGDSVHTASEVPLTPRTNSPDGRRSSSDTSKSTYSLTRRISSLESRRPSSPLIDIKPIEFGVLSAKKEPIQPSVLRRTYNPDDYFRKFEPHLYSLDSNSDDVDSLTDEEILSKYQLGMLHFSTQYDLLHNHLTVRVIEARDLPPPISHDGSRQDMAHSNPYVKICLLPDQKNSKQTGVKRKTQKPVFEERYTFEIPFLEAQRRTLLLTVVDFDKFSRHCVIGKVSVPLCEVDLVKGGHWWKALIPSSQNEVELGELLLSLNYLPSAGRLNVDVIRAKQLLQTDVSQGSDPFVKIQLVHGLKLVKTKKTSFLRGTIDPFYNESFSFKVPQEELENASLVFTVFGHNMKSSNDFIGRIVIGQYSSGPSETNHWRRMLNTHRTAVEQWHSLRSRAECDRVSPASLEVT	soluble
MRCMTLPAYDIAILGAGPVGRVLALLLARLTPQPQRIALLQGGAGLPPTPAGTLGPAADPRVLALNHGSRVLLESLRAWPAHAAEIRHIHVSQRGRLGRTVIDREDFDVPQLGNVVAYAALHAQLEQAVQDCGVTVLSGPPARVDGQDGEGLTVRQGDAALHCRLAVQCDGAGGSDVRRDYAQHAVLTSAHATLPRSGWAWERFTNEGPLAMLPHPQTPEAYSVVWCCAPPRARRLAGLDDEAFSRELTEAFGTRLGRLRSAAPRHVFPLELKARHAQAHGRLATIGNAAQTLHPVAGQGLNLGLRDAAQLAHALPDWLAAPQADPSPLLATFARARLADRWVTAGLTDLMPRIFATGLAPVEHACGLALLGLDIAAPLRAPLARHLLQGLRVLEHHHHHH	soluble
MGSDKIHHHHHHQQLLLIEKLDGTLEDYLFSDDFDEKVLLSCLFQISFSLHYLQKHYKFTHNDLHINNVMYSETTTKYLYYKFNNQYFKIPTYGKIFKIIDFGRSIFTYNNKIYMNDVFTKNSEAWGQFYYPPQVQFLTKPPEDIPNIEPNYNFDLCRLSMTIIEEIDKSKLSENMFNFLNDMCIDKFNENYCEMEDNFSLYINISKNAINSLPEDILNKTIFKQYKVIKKNFPSKLYYK	not soluble
ATDVIAQRKAILKQMGEATKPIAAMLKGEAKWDQAVVQKSLAAIADDSKKLPALFPADSKTGGDTAALPKIFEDKAKFDDLFAKLAAAATAAQGTIKDEASLKANIGGVLGNCKSCHDDFRAKKS	soluble
MGSDKIHHHHHHMTKPDMSKLASLSPFELKDELIKLASSDADRLMLNAGRGNPNFLATIPRHGFWQLGLFAMRESERSFSYMPEGVGGFPRREGIEERFDLFAREFAHVPGVSFLAGAVSYVRDQLGLNAGAFLYEMCEGILACNYPVPDRMLKLSEVIVGQYIRKEMIGNHPFIGEFDLFAVEGGTAAMTYLFNSIRENHLLKAGDTIALGMPIFTPYIEIPELNDYKLVELSVEADPGERWQYSNKELDKLRDPKVKAFFLVNPSNPPSVRMSDESLEYLASIIEERPDLIILTDDVYGTFADNFVSLFAMCPKNTILVYSFSKYFGATGWRLGVIATHRDNVFDEKIAALPDAARKELHERYTSITTEPDKLKFIDRLVADSRTVALNHTAGLSTPQQVQMVLFSLFSLMDTPDNYKIAMKRLIRNRKAALYREIGIAPEADDPNAVDYYTLLDIEALGGKALGPDFVKWVLASVEPNELLFRLAEDAGVVLLPGRGFGTRHPSGRVSLANLNESDYAKIGRSIRKLFEEYVEKYNEATGNKANKHVVKK	not soluble
MGSDKIHHHHHHMGKLLTPDDLPIVRGRVYHLDLAPEELARRVIVVGDPDRVPVLAEELLALREVDRFHRGFRTITGVTAETGQRVSFVTSGIGAPSTEIVLNELAALNEVDFASMTRRERWQPLTLVRLGTSGGLNPVTPVGTLILTDYVVGLDNTALYYDIPLPDEACALLEEKVGSVLTGTELPGARFAGKIAPYAARSDRGLLASLTAAASTLELNWTRGLTISSAGFFAEQGRGVARVGTTQVNLLDAFERLASPWPGLELQNMEMEAGFFLHFLGGMRYRAAVVCVVINQRSSGVFMADYRRQVLDGARLILRAFKEYGDARAKSGALA	not soluble
MDQKQLQALVEQISIRVFGKPFRHTAFFNPRLRTTGGRYMLQTHNIELNKKHYEQFGEEELIAIIKHELCHYHLHLEGKGYRHRDRDFRELLQKVGAPRYCRPLARNTKAPKTIYTYICTSCGLTYRRKRRINIDRYVCGRCRSKLKRS	not soluble
MGSDKIHHHHHHAETVVVRFGLFAESIPVADLQKAAETGEFPSSLNLFTRRLSEQQRRTLIGALRMRVPLNVVTISRLLNTQIGTTILNDLSRAVVRKDQSGAKALRASLVLGSTAPQGLSILSFITAYPSRSLEINLPQAFQVAGSLNNAFWRTQQFMLAISPQLDPAKPQISIPFDPSQPGNAQVQVLKLNLNDQKRNRQIPADIYWSTSATQEKPVIIYSHGMGSVRTDLHYLAEHLASHGYIFVALEHPGSNQANTDLATKGKVRLLEPQEFLNRPQDVSFVLDVLEKLNQTTGNPLQGKLATNNTMVIGYSFGGGTALSLAGAELQIAGIRERCQNKLTILSLGETIQCVAQELPEKTYQLRDNRIKQAIALTPTTSLMFGETGLTKVQIPTLIVAASADKTTPALTEQILGFSKIPSPKWLVGIIGGTHLSVKDPSTTLDQVDKPNTPLTGGEIVGEQATDVRQFVKAIALAMVAQLTPEAEKYAVFLTPDYAQLASTESFPFRIVTEIPPQAIPIGKQ	not soluble
MEIIGGKEVSPHSRPFMASIQYGGHHVCGGVLIDPQWVLTAAHCQYRFTKGQSPTVVLGAHSLSKNEASKQTLEIKKFIPFSRVTSDPQSNDIMLVKLQTAAKLNKHVKMLHIRSKTSLRSGTKCKVTGWGATDPDSLRPSDTLREVTVTVLSRKLCNSQSYYNGDPFITKDMVCAGDAKGQKDSCKGDAGGPLICKGVFHAIVSGGHECGVATKPGIYTLLTKKYQTWIKSNLVPPHTN	soluble
MSLAKQPIDLLIQPKWRIIDQSSLGPYFDAKQSFAIDDTLCASVGKGLSPATARSWVHHDTIVLGIQDTRLPYLQEGISLLEEAGYQAIVRNSGGLAVVLDSGVLNVSLIFQDKKNGIDIDRGYEAMFELVKRMLSSYDAAIEAYEIKGSYCPGSFDLSIGGRKFAGISQRRLRGGVAVQIYLCADQSGSGRAELIKRFYDTALKDMRGKTKAVYPDIRPETMASLSELLNEDISVQDLMLLLLTQLKELGGEIYQGPLTPAEEEVYEKNLVRMIERNEKVFGEGHHHHHH	soluble
GSRTGSESSRPNTALLDPSSPEFSAVVSVGDWLQAIKMDRYKDNFTAAGYTTLEAVVHMSQDDLARIGITAITHQNKILSSVQAMRTQMQQMHG	soluble
MPDKKREVSLSHRLQEVASFVPKGARLLDVGSDHAYLPIYLLEQGLIDFAVAGEIIKGPYESAVANVSESELSGQIAVRLADGLAALNDNDDIDLITICGMGGRLIADILAAGSDKLNSVKQLILQPNNCEDDLRSWLVANDFMIKAEKMVKDRHKYYEILVVEKGKITLSDKDLRFGPFLRQERSSIFKERWRKELAKLELALTKVPAKKKADNMFLSTKIEQIKEVLYES	not soluble
MGSDKIHHHHHHMLEATYHSLEDLAEAIGVALSAPITIEDRNHRLLAYSTHTADTDPARIATIIGRRVPESVIDQLWKDEVIQNLAAQDEPLIISARTGVGLNDRVAIAIKQDTEILGYIWSIARSTPFSETELSDFKKGALLAQRQLLAIDMQKKRQEEKTEQFFFELLHEDMPESEILKTFSKLHVAPPGISRLMVIRFSEAITPRLADRLRYLLTIQQTVRPLLYAYDETDFILWISTNDQDAHHERLQFDAFIQSFRQMLAERFNYTNFISASSEVFTGVQSIPERYEETGIVLRLKDAFPFELSTVTRYERLGLFQLLPIFSERLRRRTVRLEEIERLRSYDEKHAASLCETLEWFLHYDGNVKQVASHLHVHPNTILYRMRRIEEEAGIRMESLPERALLYLYLKADRYPL	not soluble
AIAALKDYALEKEKVKKFLQEFYQDDELGKKQFKYGNQLVRLAHREQVALYVDLDDVAEDDPELVDSICENARRYAKLFADAVQELLPQYKEREVVNKDVLDVYIEHRLMMEQRSRDPGMVRSPQNQYPAELMRRFELYFQGPSSSKPRVIREVRADSVGKLVTVRGIVTRVSEVKPKMVVATYTCDQCGAETYQPIQSPTFMPLIMCPSQECQTNRSGGRLYLQTRGSRFIKFQEMKMQEHSDQVPVGNIPRSITVLVEGENTRIAQPGDHVSVTGIFLPILRTGFRQVVQGLLSETYLEAHRIVKMNKSEDDESGAGELTREELRQIADVIFATVRELVSGGRSVRFSEAEQRCVSRGFTPAQFQAALDEYEELNVWQVNASRTRITFV	soluble
MYTQTLYELSQEAERLLQLSRQQLQLLEKMPLSVPGDDAPQLALPWSQPNIAERHAMLNNELRKISRLEMVLAIVGTMKAGKSTTINAIVGTEVLPNRNRPMTALPTLIRHTPGQKEPVLHFSHVAPIDCLIQKLQQRLRDCDIKHLTDVLEIDKDMRALMQRIENGVAFEKYYLGAQPIFHCLKSLNDLVRLAKALDVDFPFSAYAAIEHIPVIEVEFVHLAGLESYPGQLTLLDTPGPNEAGQPHLQKMLNQQLARASAVLAVLDYTQLKSISDEEVREAILAVGQSVPLYVLVNKFDQQDRNSDDADQVRALISGTLMKGCITPQQIFPVSSMWGYLANRARHELANNGKLPPPEQQRWVEDFAHAALGRRWRHADLADLEHIRHAADQLWEDSLFAQPIQMLLHAAYANASLYALRSAAHKLLNYAQQAREYLDFRAHGLNVACEQLRQNIHQIEESLQLLQLNQAQVSGEIKHEIELALTSANHFLRQQQDALKVQLAALFQDDSEPLSEIRTRCETLLQTAQNTISRDFTLRFAELESTLCRVLTDVIRPIEQQVKMELSESGFRPGFHFPVFHGVVPHFNTRQLFSEVISRQEATDEQSTRLGVVRETFSRWLNQPDWGRGNEKSPTETVDYSVLQRALSAEVDLYCQQMAKVLAEQVDESVTAGMNTFFAEFASCLTELQTRLRESLALRQQNESVVRLMQQQLQQTVMTHGWIYTDAQLLRDDIQTLFTAERY	not soluble
MTNKKKEITIHSSAAEYLTYVASTGRNSDSFEMRYEDENIWLTQKMMATLYDVSVSAINQHLKRIFEDDELVEESVIKKYLITASDGKSYSTKHYNLQAIIAVGFKVNNDRAVRFRKWAGQIVKDYTIQGWTMDKERLKKGHMFTDEYFERQLENIREIRLSERKFYQKVTDLYATAFDYDKDAKTTRQFFKMVQNKMHWAVHRHTAAELIVERANAEKEHMGLTTWESAPDGKIVKADVTVAKNYLSEKEMSYLQRIVSLYLDYAELQAERRIPMSMEDWAKRLDGFLEFNGNELLMGLGKVSAEQAKLHAETEFEKYRIVQDRLFMSDYDKYLIELEHQADQSDV	not soluble
MSRHWPLFDLRITTPRLQLQLPTEELCDQLIDTILEGVHDPDRMPFSVPWTRASREDLPFNTLSHLWQQLAGFKRDDWSLPLAVLVDGRAVGVQALSSKDFPITRQVDSGSWLGLRYQGHGYGTEMRAAVLYFAFAELEAQVATSRSFVDNPASIAVSRRNGYRDNGLDRVAREGAMAEALLFRLTRDDWQRHRTVEVRVDGFDRCRPLFGPLEPPRY	soluble
